Earlier results, collected in patent US7557183B2, “Polyethylene glycol linked GLP-1 compounds” (Eli Lilly and Company, priority 2003, dated 2009).

Details: in vivo

GLP-1(7-37): native truncated GLP-1 peptide, SEQ ID NO: 1
serum half-life: 3 to 5 min
